This test concerns the target T1, GST-RARα (UniProt P10276 1-462).
T1 construct: full-length RARα; also called GST-tagged full-length RARα; source: GST-tagged recombinant protein
T1 sequence (looked up): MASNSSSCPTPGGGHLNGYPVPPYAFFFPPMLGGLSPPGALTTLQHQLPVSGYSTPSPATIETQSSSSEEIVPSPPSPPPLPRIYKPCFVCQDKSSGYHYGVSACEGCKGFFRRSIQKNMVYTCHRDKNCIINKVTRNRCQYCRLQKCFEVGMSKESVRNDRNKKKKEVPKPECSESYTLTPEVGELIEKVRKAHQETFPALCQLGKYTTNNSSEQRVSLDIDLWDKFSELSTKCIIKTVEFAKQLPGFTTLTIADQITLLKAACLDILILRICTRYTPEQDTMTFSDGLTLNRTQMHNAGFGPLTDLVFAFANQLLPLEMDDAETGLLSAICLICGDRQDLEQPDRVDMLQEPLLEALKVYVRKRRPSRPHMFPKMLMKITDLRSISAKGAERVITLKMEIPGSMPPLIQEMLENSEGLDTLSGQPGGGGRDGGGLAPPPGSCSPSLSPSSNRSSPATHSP
Briefly: far-Western, overlay or dot blot; S100A3 immunoprecipitated from extracts of transfected COS-7 cells with anti-S100A3 beads, resolved and blotted; probed with GST-tagged RARα recombinant proteins; developed with an anti-GST antibody. The settings on record: both partners purified.

B1: S100A3 (over-expressed in COS-7) (natural protein, human, UniProt P33764 1-101, looked up)
chain: MARPLEQAVAAIVCTFQEYAGRCGDKYKLCQAELKELLQKELATWTPTEFRECDYNKFMSVLDTNKDCEVDFVEYVRSLACLCLYCHEYFKDCPSEPPCSQ
notes: protein S100-A3; source: COS-7, transiently transfected (pcDNA3 expression plasmid for the S100A3 cDNA), in cell extract; immunoprecipitated with anti-S100A3 for the far-western
For the molecule B1, the binding result is listed as “binds”.
